These are literature values, as cited in PMC2645917 (Journal of medicinal chemistry, 2008).

The conditions of this data set: in vivo, iv.

Regarding exenatide, the “Half-life after i.v. injection” value is on record as 26 min.
